Source: PMC3744876
Like-named read-outs stand apart in the source and are kept apart here.

T1: RIG-I CTD H847A/K858A (human, UniProt O95786 792-925, H847A;K858A)
T1 sequence: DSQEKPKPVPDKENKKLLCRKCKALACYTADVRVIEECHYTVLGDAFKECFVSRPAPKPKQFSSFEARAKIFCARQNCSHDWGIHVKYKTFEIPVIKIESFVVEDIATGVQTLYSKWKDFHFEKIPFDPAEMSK

T2: RIG-I CTD H847A (human, UniProt O95786 792-925, H847A)
T2 sequence: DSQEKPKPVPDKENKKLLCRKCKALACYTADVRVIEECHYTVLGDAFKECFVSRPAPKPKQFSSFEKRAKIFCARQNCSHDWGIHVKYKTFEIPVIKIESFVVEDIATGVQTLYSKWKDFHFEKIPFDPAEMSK

T3: RIG-I CTD (human, UniProt O95786 792-925)
T3 sequence: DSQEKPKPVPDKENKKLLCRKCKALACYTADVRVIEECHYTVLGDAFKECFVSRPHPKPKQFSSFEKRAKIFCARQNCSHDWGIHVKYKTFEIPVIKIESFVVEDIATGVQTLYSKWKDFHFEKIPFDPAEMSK


Columns and labels:
RIG-I CTD H847A/K858A = molecular target: T1, RIG-I CTD H847A/K858A; test: ITC
RIG-I CTD H847A [1] = molecular target: T2, RIG-I CTD H847A; test: ITC
RIG-I CTD [2] = molecular target: T3, RIG-I CTD; test: ITC
RIG-I CTD [3] = molecular target: T3, RIG-I CTD; test: ITC; remark: listed apart in the source
RIG-I CTD H847A [4] = molecular target: T2, RIG-I CTD H847A; test: EMSA

Binder | Kd (RIG-I CTD H847A/K858A) | Kd (RIG-I CTD H847A [1]) | Kd (RIG-I CTD [2]) | Kd (RIG-I CTD [3]) | binding signal (RIG-I CTD H847A [4])
5'-ppp-dsRNA 12-mer (dsRNA, 5'-triphosphate on both strands) RNA 1: GACGCUAGCGUC RNA 2: GACGCUAGCGUC | 649 nM | 162 nM | 29.2 nM | 215 nM | –
5'-ppp-dsRNA 12-mer, 32pCp-labelled (dsRNA, 5'-triphosphate; labelled strand (ppp-11-mer S1 + pCp) carries an additional 3'-phosphate) RNA 1: GACGCUAGCGUC RNA 2: GACGCUAGCGUC | – | – | – | – | ~10 fold weaker than WT
